{
  "source": "patent US20090324600A1",
  "about": "(PIERRE FABRE MEDICAMENT, published 2009)",
  "key": {"integrin α3β1": {"molecular_target": "integrin α3β1 (UniProt P26006)", "sequence (P26006 33-1051, chain 1 of 2)": "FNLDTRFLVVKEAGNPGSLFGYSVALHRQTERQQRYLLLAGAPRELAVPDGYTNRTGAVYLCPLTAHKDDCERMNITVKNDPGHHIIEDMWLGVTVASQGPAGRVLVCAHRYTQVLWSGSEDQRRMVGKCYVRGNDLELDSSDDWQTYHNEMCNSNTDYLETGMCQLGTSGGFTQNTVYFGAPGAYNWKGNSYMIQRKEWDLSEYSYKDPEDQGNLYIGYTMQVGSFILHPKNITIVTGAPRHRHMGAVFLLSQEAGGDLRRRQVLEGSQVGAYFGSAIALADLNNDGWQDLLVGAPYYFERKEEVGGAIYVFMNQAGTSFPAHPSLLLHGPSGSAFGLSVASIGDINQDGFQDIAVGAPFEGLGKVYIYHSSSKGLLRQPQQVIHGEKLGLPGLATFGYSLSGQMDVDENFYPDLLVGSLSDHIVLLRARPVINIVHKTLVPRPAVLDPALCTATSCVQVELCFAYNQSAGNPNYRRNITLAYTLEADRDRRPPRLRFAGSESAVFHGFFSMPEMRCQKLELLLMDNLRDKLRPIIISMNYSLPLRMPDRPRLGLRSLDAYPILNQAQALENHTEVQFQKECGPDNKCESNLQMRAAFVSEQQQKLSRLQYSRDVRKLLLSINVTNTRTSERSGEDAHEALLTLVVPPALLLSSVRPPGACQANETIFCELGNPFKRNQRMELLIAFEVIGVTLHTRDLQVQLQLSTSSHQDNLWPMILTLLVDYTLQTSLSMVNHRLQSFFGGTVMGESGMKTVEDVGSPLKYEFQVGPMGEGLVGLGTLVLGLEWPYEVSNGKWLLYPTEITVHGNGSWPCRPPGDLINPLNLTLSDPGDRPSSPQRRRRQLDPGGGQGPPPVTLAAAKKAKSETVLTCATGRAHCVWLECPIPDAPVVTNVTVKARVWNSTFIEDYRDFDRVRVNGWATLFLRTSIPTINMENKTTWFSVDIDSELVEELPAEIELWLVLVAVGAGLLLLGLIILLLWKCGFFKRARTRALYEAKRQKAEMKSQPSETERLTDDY", "sequence (P05556 21-798, chain 2 of 2, further chain)": "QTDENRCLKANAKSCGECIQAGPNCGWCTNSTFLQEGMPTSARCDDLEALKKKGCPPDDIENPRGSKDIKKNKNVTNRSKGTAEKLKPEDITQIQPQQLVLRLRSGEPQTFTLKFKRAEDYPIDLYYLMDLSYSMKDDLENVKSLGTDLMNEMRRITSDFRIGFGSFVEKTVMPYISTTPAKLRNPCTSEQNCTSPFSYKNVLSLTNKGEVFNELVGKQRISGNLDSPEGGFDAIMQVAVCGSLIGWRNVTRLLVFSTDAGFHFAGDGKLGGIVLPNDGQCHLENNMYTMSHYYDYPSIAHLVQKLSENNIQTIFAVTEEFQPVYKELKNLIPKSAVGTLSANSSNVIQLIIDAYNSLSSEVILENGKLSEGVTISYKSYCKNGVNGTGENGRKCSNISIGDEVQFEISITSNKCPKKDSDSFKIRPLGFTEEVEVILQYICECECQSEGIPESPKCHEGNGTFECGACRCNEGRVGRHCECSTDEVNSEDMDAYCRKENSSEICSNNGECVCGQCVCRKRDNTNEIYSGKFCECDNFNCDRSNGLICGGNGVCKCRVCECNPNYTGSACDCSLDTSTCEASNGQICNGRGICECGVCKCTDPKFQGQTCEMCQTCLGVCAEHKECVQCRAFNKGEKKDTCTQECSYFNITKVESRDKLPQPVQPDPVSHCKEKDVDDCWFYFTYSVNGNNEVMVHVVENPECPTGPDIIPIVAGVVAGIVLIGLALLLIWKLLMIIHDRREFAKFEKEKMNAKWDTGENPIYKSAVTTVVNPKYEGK", "experiment": "cell-based or functional assay"}, "integrin α6β4": {"molecular_target": "integrin α6β4 (UniProt P23229)", "sequence (P23229 24-1130 limits assumed, chain 1 of 2)": "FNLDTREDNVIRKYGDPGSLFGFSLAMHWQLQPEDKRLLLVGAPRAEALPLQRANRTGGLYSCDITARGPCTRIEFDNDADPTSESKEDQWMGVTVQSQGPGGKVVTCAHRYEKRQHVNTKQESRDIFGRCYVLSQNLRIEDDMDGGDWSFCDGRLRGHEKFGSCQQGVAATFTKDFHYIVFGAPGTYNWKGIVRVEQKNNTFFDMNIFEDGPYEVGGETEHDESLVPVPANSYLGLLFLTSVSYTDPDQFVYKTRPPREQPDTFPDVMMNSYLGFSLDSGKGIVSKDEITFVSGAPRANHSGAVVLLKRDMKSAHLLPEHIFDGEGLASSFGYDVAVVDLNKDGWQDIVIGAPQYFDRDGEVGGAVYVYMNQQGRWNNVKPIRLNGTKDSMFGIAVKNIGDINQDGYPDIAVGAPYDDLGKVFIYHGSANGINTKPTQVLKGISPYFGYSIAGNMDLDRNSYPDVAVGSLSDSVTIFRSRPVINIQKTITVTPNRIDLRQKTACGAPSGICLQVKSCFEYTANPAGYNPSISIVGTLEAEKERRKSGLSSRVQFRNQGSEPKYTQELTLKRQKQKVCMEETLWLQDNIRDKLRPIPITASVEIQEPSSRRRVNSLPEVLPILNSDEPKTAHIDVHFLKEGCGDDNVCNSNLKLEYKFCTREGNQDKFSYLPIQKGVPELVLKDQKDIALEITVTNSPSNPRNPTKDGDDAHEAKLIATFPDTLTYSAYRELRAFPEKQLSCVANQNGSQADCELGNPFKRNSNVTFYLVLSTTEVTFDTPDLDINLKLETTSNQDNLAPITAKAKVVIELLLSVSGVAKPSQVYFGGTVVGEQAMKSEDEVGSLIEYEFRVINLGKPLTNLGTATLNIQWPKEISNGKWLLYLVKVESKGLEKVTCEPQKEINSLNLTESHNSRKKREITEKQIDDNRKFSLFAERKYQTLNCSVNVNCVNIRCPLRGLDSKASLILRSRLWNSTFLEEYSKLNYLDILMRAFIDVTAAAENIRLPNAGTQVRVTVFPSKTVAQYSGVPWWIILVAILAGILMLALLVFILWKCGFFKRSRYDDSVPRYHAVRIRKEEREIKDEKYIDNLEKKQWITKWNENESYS", "sequence (P16144 28-1822 limits assumed, chain 2 of 2, further chain)": "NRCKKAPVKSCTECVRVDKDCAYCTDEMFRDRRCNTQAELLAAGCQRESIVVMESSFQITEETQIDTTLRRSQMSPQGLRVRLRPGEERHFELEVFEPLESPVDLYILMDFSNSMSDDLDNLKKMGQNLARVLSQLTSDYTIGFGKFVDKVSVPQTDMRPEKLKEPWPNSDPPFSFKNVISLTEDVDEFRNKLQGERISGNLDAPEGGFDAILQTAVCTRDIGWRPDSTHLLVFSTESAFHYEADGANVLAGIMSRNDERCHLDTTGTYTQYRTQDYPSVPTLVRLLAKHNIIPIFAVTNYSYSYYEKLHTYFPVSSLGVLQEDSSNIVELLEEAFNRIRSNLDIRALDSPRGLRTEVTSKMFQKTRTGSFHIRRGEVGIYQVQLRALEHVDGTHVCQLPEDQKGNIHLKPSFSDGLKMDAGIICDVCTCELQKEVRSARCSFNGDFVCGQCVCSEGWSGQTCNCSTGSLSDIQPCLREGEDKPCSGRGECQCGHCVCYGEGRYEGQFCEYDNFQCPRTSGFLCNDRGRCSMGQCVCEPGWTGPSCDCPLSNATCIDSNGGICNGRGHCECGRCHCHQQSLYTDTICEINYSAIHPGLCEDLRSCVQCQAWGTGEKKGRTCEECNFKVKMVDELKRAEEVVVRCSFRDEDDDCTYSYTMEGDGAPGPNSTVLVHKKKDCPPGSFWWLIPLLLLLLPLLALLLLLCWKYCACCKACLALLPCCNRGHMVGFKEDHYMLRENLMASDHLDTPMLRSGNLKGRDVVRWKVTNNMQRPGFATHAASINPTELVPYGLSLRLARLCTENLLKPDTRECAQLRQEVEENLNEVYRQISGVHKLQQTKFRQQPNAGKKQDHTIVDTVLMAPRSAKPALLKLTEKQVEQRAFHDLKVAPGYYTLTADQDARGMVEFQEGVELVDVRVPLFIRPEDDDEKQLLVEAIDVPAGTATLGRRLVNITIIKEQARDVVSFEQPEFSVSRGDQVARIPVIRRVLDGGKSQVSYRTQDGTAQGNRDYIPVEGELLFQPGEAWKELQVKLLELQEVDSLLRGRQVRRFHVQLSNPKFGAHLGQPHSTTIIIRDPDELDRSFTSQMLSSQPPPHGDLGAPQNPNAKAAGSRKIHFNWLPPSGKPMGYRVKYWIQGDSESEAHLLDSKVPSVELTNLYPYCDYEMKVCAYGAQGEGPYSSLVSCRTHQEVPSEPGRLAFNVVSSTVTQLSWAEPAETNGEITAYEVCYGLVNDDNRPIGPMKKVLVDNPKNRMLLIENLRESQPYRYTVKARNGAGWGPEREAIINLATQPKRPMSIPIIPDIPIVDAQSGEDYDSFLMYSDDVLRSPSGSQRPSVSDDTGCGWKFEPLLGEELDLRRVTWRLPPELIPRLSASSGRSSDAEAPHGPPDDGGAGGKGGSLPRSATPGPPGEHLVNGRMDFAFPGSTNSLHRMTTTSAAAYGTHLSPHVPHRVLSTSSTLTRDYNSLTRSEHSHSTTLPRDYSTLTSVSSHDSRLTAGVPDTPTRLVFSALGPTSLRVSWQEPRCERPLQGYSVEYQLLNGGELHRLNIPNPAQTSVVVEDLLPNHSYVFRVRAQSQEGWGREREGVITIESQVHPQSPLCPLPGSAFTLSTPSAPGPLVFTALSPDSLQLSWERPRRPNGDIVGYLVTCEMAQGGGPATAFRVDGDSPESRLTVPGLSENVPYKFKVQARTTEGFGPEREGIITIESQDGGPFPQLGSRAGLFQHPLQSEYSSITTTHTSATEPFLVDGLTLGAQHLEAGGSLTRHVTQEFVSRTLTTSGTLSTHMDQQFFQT", "experiment": "cell-based or functional assay"}, "murine CD151": {"molecular_target": "T1, murine CD151 (murine, UniProt O35566 1-253)", "T1 construct": "Endogenous protein in mouse tissue lysates on a Western blot; also called murine receptor", "T1 sequence (looked up)": "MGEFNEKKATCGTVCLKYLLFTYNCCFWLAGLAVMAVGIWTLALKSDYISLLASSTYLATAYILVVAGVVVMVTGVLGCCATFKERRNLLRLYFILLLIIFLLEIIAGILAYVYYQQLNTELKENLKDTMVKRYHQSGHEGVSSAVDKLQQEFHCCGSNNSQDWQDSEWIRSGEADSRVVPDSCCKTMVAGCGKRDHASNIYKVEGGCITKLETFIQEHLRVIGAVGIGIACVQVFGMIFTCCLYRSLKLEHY", "experiment": "Western blot of murine lung, pancreas and colon tissue lysates (10 µg total protein), non-reductive conditions", "method": "The specificity of the TS151 and TS151r antibodies was evaluated by Western blot. Lysates of human and murine lung, pancreas and colon tissues (Biochain, 10 μg of total proteins) and also increasing amounts of HT-29 cell lysate (10, 20 and 50 μg of total proteins) were placed on a 4-12% acrylamide gel (BioRad). After electrophoresis (non-reductive conditions), the proteins were transferred onto nitrocellulose membranes. The transfer membranes were then incubated with the purified TS151 and TS151r antibodies and then with a rabbit anti-mouse Ig polyclonal antibody coupled to peroxidase (GE Healthcare) before ECL-type visualisation."}},
  "data": [
    {"molecule": "anti-integrin α3 antibody P1B5", "values": [
      {"measurement": "inhibition of adhesion of A549 cells on laminin 5, 15 minutes", "setting": "integrin α3β1", "value": "> 90", "unit": "%"},
      {"measurement": "inhibition of adhesion of A549 cells on laminin 5, 1 hour", "setting": "integrin α3β1", "value": 20, "unit": "%"}
    ]},
    {"molecule": "anti-integrin α6 antibody NKI-Go3", "values": [
      {"measurement": "inhibition of adhesion of A549 cells on laminin 5 after 1 hour, NKI-Go3 in association with P1B5", "setting": "integrin α6β4", "value": "> 90", "unit": "%"}
    ]},
    {"molecule": "anti-integrin β4 antibody ASC-3", "values": [
      {"measurement": "inhibition of adhesion of A549 cells on laminin 5 after 1 hour, ASC-3 in association with P1B5", "setting": "integrin α6β4", "value": 70, "unit": "%"}
    ]},
    {"molecule": "TS151 antibody (antibody, mouse IgG1, V domains shown, Murine monoclonal from a hybridoma; also called anti-CD151 antibody TS151) VH: QIQLVQSGPELKKPGETVKISCKASGYTFTDYSMHWVKQAPGKGLKWMGWINTETGEPTYTDDFKGRFAFSLETSANTAYLRINNLKNEDTATYFCARREYGNYYGMEYWGQGTSVTVSS VL: DIVLTQSPASLAVSLGQRATISCRASQSVSTSTFSYIHWYQQKPGQPPKLLIKSASNLESGVPARFSGSGSGTDFTLTIHPVEEEDTATYFCQHSWEIPLTFGAGTKLELK", "values": [
      {"measurement": "binding result", "setting": "murine CD151", "value": "no binding"}
    ]},
    {"molecule": "TS151r antibody (antibody, mouse IgG1, V domains shown, Murine monoclonal from a hybridoma) VH: QVQLQQPGSVVVRPGASVKLSCKASGYTFTSSWMHWAKQRPGQGLEWIGQIHPNSGNTNYNEKFKVKATLTIDTSSSTAYVDLNSLTSGDSAVYYCARGDDAYYSGLYAMDYWGQGTSVTVSS VL: DIVLTQSPASLAVSLGQRATISCRASQSVSTSRYSYMHWYQQIQGQPPKLLIKYASNLESGVPARFSGSGSGTDFTLNIHPVEEEDTATYHCQHSWEIPYTFGGGTTLEIK", "values": [
      {"measurement": "binding result", "setting": "murine CD151", "value": "no binding"}
    ]}
  ]
}
